Legend:
[1] = target: GST-FliJ (Salmonella enterica), P0A1K1; experiment: BLI; GST-FliJ immobilised on an anti-GST sensor tip (BLItz), His-FlhAC or its variants in solution at various concentrations; kinetic buffer PBS pH 7.4, 0.1% BSA, 0.002% Tween-20; 25 °C; wild type fitted with a two-state reaction model, FlhAC-EWD and FlhAC-ΔL with the Hill equation; n = 3; conditions: remark: other sources report otherwise
[2] = target: T1, GST-FlgN (Salmonella enterica), P0A1J7; experiment: BLI; GST-FlgN immobilised on an anti-GST sensor tip (BLItz), His-FlhAC or its variants in solution at various concentrations; kinetic buffer PBS pH 7.4, 0.1% BSA, 0.002% Tween-20; 25 °C; FlhAC-ED and FlhAC-EWD fitted with a two-state reaction model, FlhAC-ΔL with a heterogeneous reaction model; n = 3; conditions: remark: other sources report otherwise
T1 chain: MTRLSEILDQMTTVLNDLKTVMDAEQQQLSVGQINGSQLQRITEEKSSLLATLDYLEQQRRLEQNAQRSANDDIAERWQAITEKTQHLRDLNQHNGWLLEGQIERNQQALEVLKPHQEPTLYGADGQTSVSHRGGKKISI

[3] = target: T2, His-FlhAC lacking FlhAL (residues 328–361) (Salmonella enterica, UniProt P40729 362-692); experiment: as above; conditions: both partners purified
T2 construct: also called FlhAC-ΔL; His-FlhAC-ΔL
T2 sequence: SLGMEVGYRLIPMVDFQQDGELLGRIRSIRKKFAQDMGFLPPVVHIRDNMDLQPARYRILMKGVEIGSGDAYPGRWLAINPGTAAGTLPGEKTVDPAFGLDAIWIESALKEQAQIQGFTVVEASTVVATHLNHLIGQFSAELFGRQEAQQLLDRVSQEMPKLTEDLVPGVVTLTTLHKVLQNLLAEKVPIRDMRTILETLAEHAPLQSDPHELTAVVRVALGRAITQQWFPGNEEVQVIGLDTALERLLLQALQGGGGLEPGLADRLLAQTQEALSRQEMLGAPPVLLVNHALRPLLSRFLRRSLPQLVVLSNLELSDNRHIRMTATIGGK

[4] = target: T3, His-FlhAC (C-terminal cytoplasmic domain of FlhA, residues 328–692), wild type (Salmonella enterica, UniProt P40729 328-692); experiment: as above; conditions: both partners purified
T3 construct: also called wild-type FlhAC; WT
T3 sequence: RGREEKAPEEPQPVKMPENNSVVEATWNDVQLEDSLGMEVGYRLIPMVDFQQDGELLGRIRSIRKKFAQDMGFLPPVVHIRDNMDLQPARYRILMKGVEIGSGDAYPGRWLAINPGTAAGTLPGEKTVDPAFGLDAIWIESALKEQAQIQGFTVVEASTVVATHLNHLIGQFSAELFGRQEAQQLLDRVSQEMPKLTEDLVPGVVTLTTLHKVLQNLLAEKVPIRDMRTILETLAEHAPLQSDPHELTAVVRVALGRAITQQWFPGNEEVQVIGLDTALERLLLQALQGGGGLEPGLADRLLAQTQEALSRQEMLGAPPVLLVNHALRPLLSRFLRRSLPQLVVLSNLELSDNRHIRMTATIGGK

[5] = target: T4, His-FlhAC(E351A/W354A/D356A) (Salmonella enterica, UniProt P40729 328-692, E351A | W354A | D356A); experiment: as above; conditions: both partners purified
T4 construct: also called FlhAC-EWD; His-FlhAC-EWD
T4 sequence: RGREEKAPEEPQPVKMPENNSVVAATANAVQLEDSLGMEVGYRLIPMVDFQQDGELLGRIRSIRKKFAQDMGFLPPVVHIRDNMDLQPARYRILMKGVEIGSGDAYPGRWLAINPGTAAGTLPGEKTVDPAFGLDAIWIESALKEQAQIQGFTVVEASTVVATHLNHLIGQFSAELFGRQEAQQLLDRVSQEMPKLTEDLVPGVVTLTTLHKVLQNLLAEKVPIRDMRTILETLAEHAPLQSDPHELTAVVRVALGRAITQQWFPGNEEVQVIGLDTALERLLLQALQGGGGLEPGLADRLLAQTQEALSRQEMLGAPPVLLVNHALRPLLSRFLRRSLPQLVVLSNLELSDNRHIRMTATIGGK

Sequence of GST-FliJ (Salmonella enterica), P0A1K1 (P0A1K1 whole entry): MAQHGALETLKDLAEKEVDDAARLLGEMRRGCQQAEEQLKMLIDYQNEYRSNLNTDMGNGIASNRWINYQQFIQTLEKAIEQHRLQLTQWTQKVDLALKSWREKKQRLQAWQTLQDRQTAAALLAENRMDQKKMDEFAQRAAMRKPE

B1: His-FlhAC (C-terminal cytoplasmic domain of FlhA, residues 328–692), wild type, P40729 328-692 (domain or fragment)
chain: RGREEKAPEEPQPVKMPENNSVVEATWNDVQLEDSLGMEVGYRLIPMVDFQQDGELLGRIRSIRKKFAQDMGFLPPVVHIRDNMDLQPARYRILMKGVEIGSGDAYPGRWLAINPGTAAGTLPGEKTVDPAFGLDAIWIESALKEQAQIQGFTVVEASTVVATHLNHLIGQFSAELFGRQEAQQLLDRVSQEMPKLTEDLVPGVVTLTTLHKVLQNLLAEKVPIRDMRTILETLAEHAPLQSDPHELTAVVRVALGRAITQQWFPGNEEVQVIGLDTALERLLLQALQGGGGLEPGLADRLLAQTQEALSRQEMLGAPPVLLVNHALRPLLSRFLRRSLPQLVVLSNLELSDNRHIRMTATIGGK
Work on B1 yielded a Kd [1] of 1.36 µM.

B2: His-FlhAC(E351A/W354A/D356A), P40729 328-692 (domain or fragment)
chain: RGREEKAPEEPQPVKMPENNSVVAATANAVQLEDSLGMEVGYRLIPMVDFQQDGELLGRIRSIRKKFAQDMGFLPPVVHIRDNMDLQPARYRILMKGVEIGSGDAYPGRWLAINPGTAAGTLPGEKTVDPAFGLDAIWIESALKEQAQIQGFTVVEASTVVATHLNHLIGQFSAELFGRQEAQQLLDRVSQEMPKLTEDLVPGVVTLTTLHKVLQNLLAEKVPIRDMRTILETLAEHAPLQSDPHELTAVVRVALGRAITQQWFPGNEEVQVIGLDTALERLLLQALQGGGGLEPGLADRLLAQTQEALSRQEMLGAPPVLLVNHALRPLLSRFLRRSLPQLVVLSNLELSDNRHIRMTATIGGK
B2 showed a Kd [1] of 60.7 µM.

B3: His-FlhAC lacking FlhAL (residues 328–361), P40729 362-692 (domain or fragment)
chain: SLGMEVGYRLIPMVDFQQDGELLGRIRSIRKKFAQDMGFLPPVVHIRDNMDLQPARYRILMKGVEIGSGDAYPGRWLAINPGTAAGTLPGEKTVDPAFGLDAIWIESALKEQAQIQGFTVVEASTVVATHLNHLIGQFSAELFGRQEAQQLLDRVSQEMPKLTEDLVPGVVTLTTLHKVLQNLLAEKVPIRDMRTILETLAEHAPLQSDPHELTAVVRVALGRAITQQWFPGNEEVQVIGLDTALERLLLQALQGGGGLEPGLADRLLAQTQEALSRQEMLGAPPVLLVNHALRPLLSRFLRRSLPQLVVLSNLELSDNRHIRMTATIGGK
For B3, the Kd [1] was 49 µM.

B4: His-FlhAC(E351A/D356A), P40729 328-692 (domain or fragment)
chain: RGREEKAPEEPQPVKMPENNSVVAATWNAVQLEDSLGMEVGYRLIPMVDFQQDGELLGRIRSIRKKFAQDMGFLPPVVHIRDNMDLQPARYRILMKGVEIGSGDAYPGRWLAINPGTAAGTLPGEKTVDPAFGLDAIWIESALKEQAQIQGFTVVEASTVVATHLNHLIGQFSAELFGRQEAQQLLDRVSQEMPKLTEDLVPGVVTLTTLHKVLQNLLAEKVPIRDMRTILETLAEHAPLQSDPHELTAVVRVALGRAITQQWFPGNEEVQVIGLDTALERLLLQALQGGGGLEPGLADRLLAQTQEALSRQEMLGAPPVLLVNHALRPLLSRFLRRSLPQLVVLSNLELSDNRHIRMTATIGGK
For B4, the Kd [2] was 37.8 µM.

B5: GST-FlgN (natural protein)
chain: MTRLSEILDQMTTVLNDLKTVMDAEQQQLSVGQINGSQLQRITEEKSSLLATLDYLEQQRRLEQNAQRSANDDIAERWQAITEKTQHLRDLNQHNGWLLEGQIERNQQALEVLKPHQEPTLYGADGQTSVSHRGGKKISI
notes: also called pMMGN101
Binder B5 has a Kd [3] of 3.1 µM, a Kd [4] of 0.095 µM and a koff [4] of roughly 0.000781 s⁻¹. For the same binder, the kon [4] was roughly 8230 M⁻¹ s⁻¹ and the Kd [5] was 31.2 µM.
